Assay results taken from patent publication US20130039933.

Assays:
[1] = test system: S366 peptide (STING peptide substrate with serine 366)
[2] = test system: A366 peptide (STING peptide substrate with alanine at 366)

Substance | Activity (cpm) [1] [cpm] | Fold induction [1] [fold] | Activity (cpm) [2] [cpm]
CK1δ | 25200 | 1.62 | 15600
NEK6 | 35600 | 6.45 | 5510
NEK7 | 19100 | 5.28 | 3620
PIM2 | 3720 | 2.63 | 1410
